Test results taken from paper PMC4600981.

Target: FvCamlp (calmodulin like EF hand protein of Flammulina velutipes), freed of the GST tag (Flammulina velutipes)
Test: SEC; Superdex 200, 25 mM Tris-HCl pH 7.5, 150 mM NaCl, 4 °C, flow 0.4 ml/min; in absence (5.0 mM EGTA) and presence of Ca2+ (5.0 mM); monomer to dimer

stoichiometry N: 2
Substance: FvCamlp (calmodulin like EF hand protein of Flammulina velutipes), freed of the GST tag (natural protein)
